We go through three molecules from patent US10966923.

One experiment has as its target VEGF (UniProt P15692). Kind of experiment: VEGF incubated with particles, particulate spun out, free VEGF in the supernatant measured by ELISA.
In experiment [1] the target is AB160 (nanoparticle of albumin-bound paclitaxel and bevacizumab, ratio about 10:4, average particle size 160 nm) (UniProt P02768). The experiment in a line: flow cytometry of particles stained with goat anti-mouse IgG and PE.
The target in experiment [2] is Abraxane (albumin-bound paclitaxel) (UniProt P02768). The experiment in a line: flow cytometry of particles stained with goat anti-mouse IgG and PE; ABX alone as comparison.
Experiment [3] has as its target T1, Abraxane (albumin-bound paclitaxel) (UniProt P02768 25-609).
T1 construct: also called ABX; Paclitaxel Albumin-stabilized Nanoparticle Formulation
Kind of experiment: VEGF incubated with particles, particulate spun out, free VEGF in the supernatant measured by ELISA.
Protocol: The VEGF was incubated with the nanoparticles for 2 hours at room temperature. The suspension was spun at 6000 rpm for 15 minutes, supernatants were collected and free VEGF was measured by ELISA. Briefly, ELISA plates were coated with capture antibody overnight at 4° C. Plates were washed, blocked and standards and samples were added. After washing, detection antibody was added and plates were developed with substrate (R and D Systems, Minneapolis, Minn.). […] The concentration of unbound VEGF was determined with a standard curve from 0 to 2000 pg/ml.

Turning to “AB160 (nanoparticle of albumin-bound paclitaxel and bevacizumab, ratio about 10:4, average particle size 160 nm) (from UniProt P02768 25-609)”, the % VEGF unbound in the experiment with VEGF was less than 10%.

Take goat anti-mouse IgG (antibody): the % positive in experiment [1] was determined as 41.2%; in experiment [2] it was 6.7%.

B1: VEGF (ligand, UniProt P15692-4 27-191, looked up)
chain: APMAEGGGQNHHEVVKFMDVYQRSYCHPIETLVDIFQEYPDEIEYIFKPSCVPLMRCGGCCNDEGLECVPTEESNITMQIMRIKPHQGQHIGEMSFLQHNKCECRPKKDRARQENPCGPCSERRKHLFVQDPQTCKCSCKNTDSRCKARQLELNERTCRCDKPRR
notes: Soluble VEGF
Regarding B1, the binding result in experiment [3] is “no binding (tested: 2000 pg/ml VEGF)”.
